Consider one substance from US20040258688A1.

For the experiment, the target named is murine DEC-205 (mouse) (UniProt Q60767). The experiment in a line: Alexa488-conjugated antibody (10 µg) injected s.c.; flow cytometry of CD11c+ cells. (In general: Flow cytometry measures light scatter and fluorescence of single cells or particles in a stream.)
UniProt Q60767, sequence (Q60767 28-1723 S1283P limits assumed): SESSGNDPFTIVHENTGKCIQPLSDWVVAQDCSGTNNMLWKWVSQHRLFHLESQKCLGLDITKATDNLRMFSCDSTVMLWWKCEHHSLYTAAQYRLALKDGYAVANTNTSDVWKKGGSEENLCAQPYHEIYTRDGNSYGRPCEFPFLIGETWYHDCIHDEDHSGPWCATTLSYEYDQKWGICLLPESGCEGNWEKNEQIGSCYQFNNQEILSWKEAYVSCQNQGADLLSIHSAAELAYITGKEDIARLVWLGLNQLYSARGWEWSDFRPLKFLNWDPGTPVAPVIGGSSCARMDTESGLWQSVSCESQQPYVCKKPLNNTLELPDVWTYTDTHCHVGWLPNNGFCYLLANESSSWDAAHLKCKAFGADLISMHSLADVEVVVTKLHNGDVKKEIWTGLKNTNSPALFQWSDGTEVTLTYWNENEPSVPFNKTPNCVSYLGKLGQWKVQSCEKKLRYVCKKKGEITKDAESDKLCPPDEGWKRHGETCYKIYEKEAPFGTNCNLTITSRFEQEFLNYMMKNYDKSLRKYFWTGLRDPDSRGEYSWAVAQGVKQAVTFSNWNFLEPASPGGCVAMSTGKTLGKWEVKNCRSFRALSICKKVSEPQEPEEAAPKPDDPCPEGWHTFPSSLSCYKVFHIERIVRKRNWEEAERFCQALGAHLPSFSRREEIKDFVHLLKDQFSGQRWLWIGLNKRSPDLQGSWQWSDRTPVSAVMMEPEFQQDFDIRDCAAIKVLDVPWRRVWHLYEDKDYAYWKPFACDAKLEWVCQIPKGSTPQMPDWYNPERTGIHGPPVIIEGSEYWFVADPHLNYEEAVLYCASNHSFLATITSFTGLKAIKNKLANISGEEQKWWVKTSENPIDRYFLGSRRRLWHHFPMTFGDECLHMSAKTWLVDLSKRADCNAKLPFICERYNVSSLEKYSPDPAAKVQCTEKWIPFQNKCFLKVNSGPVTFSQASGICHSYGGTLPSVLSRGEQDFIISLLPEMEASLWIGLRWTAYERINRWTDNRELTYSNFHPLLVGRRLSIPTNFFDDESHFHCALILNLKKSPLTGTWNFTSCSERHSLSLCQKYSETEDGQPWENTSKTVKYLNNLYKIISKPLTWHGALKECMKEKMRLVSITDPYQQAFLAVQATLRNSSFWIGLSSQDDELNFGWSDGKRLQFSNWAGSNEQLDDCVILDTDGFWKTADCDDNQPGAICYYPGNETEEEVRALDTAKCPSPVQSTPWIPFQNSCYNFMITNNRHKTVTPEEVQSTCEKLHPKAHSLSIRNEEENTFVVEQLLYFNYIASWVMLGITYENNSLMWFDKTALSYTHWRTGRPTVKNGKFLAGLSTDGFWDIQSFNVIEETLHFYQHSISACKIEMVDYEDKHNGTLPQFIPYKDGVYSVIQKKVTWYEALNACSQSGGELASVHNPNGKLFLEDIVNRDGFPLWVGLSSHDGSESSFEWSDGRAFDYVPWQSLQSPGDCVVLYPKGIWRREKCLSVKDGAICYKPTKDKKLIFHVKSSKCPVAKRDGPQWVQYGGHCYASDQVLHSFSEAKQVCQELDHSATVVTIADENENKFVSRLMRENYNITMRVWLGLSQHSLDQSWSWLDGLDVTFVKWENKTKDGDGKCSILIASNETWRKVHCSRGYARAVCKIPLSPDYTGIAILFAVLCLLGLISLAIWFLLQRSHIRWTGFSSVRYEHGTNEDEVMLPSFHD

On to NLDC-145 monoclonal antibody to DEC-205, for which the percent of distal lymph node DCs loaded with injected antibody at 6 hrs amounted to 40%, the percent of draining lymph node DCs loaded with injected antibody at 6 hrs was greater than 50% and the percent of spleen DCs loaded with injected antibody at 6 hrs was found to be 30%.
